Reference: PMC9175631 (Journal of Virology, 2022)
Where a chain is given by its changes, count along the chain named.

B1: anti-ZIKV MAb 289-3 (antibody, V domains shown)
VH: QEELEESGGDLVKPGASLTLTCKASGFSFSSGAYICWVRQAPGKGPEWIACIYTGDGRTYYANWAKRRFTISSSSSTTVALEMPSLTDADTATYFCARAIAVGAGYGVGNYFTLWGPGTLVTVSS
VL: DIVMTQTPSSVSAAVGGTVTINCHASENIYGYLSWYQQKPGQPPKLLIYKASTLASGVPSRFKGSGAGTQFTLTITALECADAATYYCQSYYTSSSNADGSENAFGGGTEVVVE
B2: anti-ZIKV MAb 11-3 (antibody, V domains shown)
VH: QEQLVESGGGLVQPEGSLTITCTGSGFSFSSRFYMCWVRQAPGKGLEWIACIYGGSSGSTYYASWAKGRFTISKTSSTTVTLQISSLTAADTATYFCARGGSTAAAGFNLWGPGTLLTVSS
VL: DVVMTQTPASVSATVGGTVTIKCQASEDIYNLLAWYQQKPGQPPKLLIYYASTLASGVPSRFKGSGSGTEFTLTISDLECADAATYYCQCNDYGGTYVPNAFGGGTEVVVK
notes: recombinant rabbit IgG
B3: anti-ZIKV MAb 306-2 (antibody, V domains shown)
VH: QSLEESGGDLVKPGASLTLTCTASGFDFSDRYYMCWVRQAPGKGLEWIGCIYVGSGDTYYASWAKGRFTISRTSSTTVTLQMTRLTAADTATYFCARHPGTYFTLWGPGTLVTVSS
VL: DVVMTQTPSSVSAAVGGTVTINCQASQNIVNNLAWYQQRPGQPPKLLIYDTSTLASGVPSRFKGSGSGTEFTLTISDLECADAATYYCQTYYYYNKIINGFGGGTEVVVK
B4: framework region (FWR) amino acid reverted anti-ZIKV MAb 306-2 (antibody, V domains shown)
VH: B3 VH with G49A, R72K, R84S
VL: B3 VL with S10P, A34S, R39K, T53N, G66R
notes: rabbit IgG; 3 FWRH and 5 FWRL residues reverted to the germ line; also called allele reverted MAb 306-2; MAb 306-2 with amino acid reverted to allele
B5: framework region (FWR) amino acid reverted anti-ZIKV MAb 102-1 (antibody, V domains shown)
VH: QSLEESGGDLVKPGASLTLTCTASGFSFNSNYWMCWVRQAPGKGLEWIACVFGGIHVTYYASWAKGRFTISKTSSTTVTLQMTSLTAADTATYFCIISTGGSHRFNLWGPGTLVTVSS
VL: DVVMTQTPSPVSAAVGGTVTINCQASESIYTYLSWYQQKPGQPPKLLIYRASTLESGVPSRFKGSGSGTQFTLTISDLECADAATYYCQATDVGGSGRGAFGGGTEVVVE
notes: rabbit IgG; 9 FWRH and 9 FWRL residues reverted to the germ line
B6: anti-ZIKV MAb 242-3 (antibody, V domains shown)
VH: QAQLEESGGDLVKPEGSLTLTCTASGFSFTDRHYMCWIRQAPGKGLEWIACVYPGSSGSTYYASWARGRFTISKTSSTTVTLRMTSLTAADTATYFCARSSYPDSSGYSYGMDLWGPGTLVTVSS
VL: DIVMTQTPASVEAAVGGTVTIKCQASQNINSNLAWYQQKPGQRPKFLMYLTSKLASGVPSRFRGSGSGTQFTLTISDLECADAATYYCQTYYDISNYGYAFGGGTEVVVK
notes: recombinant rabbit IgG; 99% amino acid identity with 270-12
B7: anti-ZIKV MAb 270-12 (antibody, V domains shown)
VH: B6 VH with I38V
VL: B6 VL with N28D
notes: source: 293-6E cells, cotransfected, purified (MabSelect SuRe protein A)
B8: anti-ZIKV MAb 78-2 (antibody, V domains shown)
VH: QQQLVESGGGLVKPGASLTLNCKASGLDFSTNSYMCWVRQAPGKGLEWIACIYVGDSSEIYYASWAKGRFTISKTSSTTVTLQMTSLTAADTATYFCARDLPSFTAPYAGYLRLWGPGTLVTVSS
VL: QPVLTQPPSLSASLGTTARLTCTLRTGYNVGDYPLLWLQRVPGRPPRYLLTYHTEEFKHQGSGVHSRFSGSKDASENAGVLSISGLQPEDEANYYCYTVHATESSLHYVFGGGTQLTVT

How the values were obtained:
[1] = molecular target: T1, ZIKV E protein (Suriname Z1106033) (Zika virus, Suriname Z1106033, UniProt A0A0U4DG08, strain); experiment: cell-based or functional assay
[2] = molecular target: T1, ZIKV E protein (Suriname Z1106033); experiment: BLI; Octet HTX; MAb 0.1 to 0.3 μg/mL amine-coupled to AR2G biosensor; ZIKV-VLP 0.1 to 1.0 μg/mL or ZIKV E protein 0.2 to 2 μg/mL in 1x kinetic buffer; association 900 s, dissociation 1,200 s; Langmuir 1:1 model; average of two runs; conditions: both partners purified
[3] = molecular target: T2, ZIKV virus-like particles (Suriname Z1106033) (Zika virus, Suriname Z1106033, UniProt A0A0U4DG08, strain); experiment: as above; conditions: both partners purified
T2 construct: also called ZIKV-VLP; VLP; source: bought: The Native Antigen Company

[4] = molecular target: T3, wild-type ZIKV prM/E (ZIKV SPH2015) (Zika virus, SPH2015, UniProt A0A0U3FSM8, strain); experiment: flow cytometry on cells; conditions: one partner purified
T3 construct: also called WT prM/E; wild-type prM/E; source: HEK-293T, transfected, cells fixed and permeabilised

[5] = molecular target: T1, ZIKV E protein (Suriname Z1106033); experiment: BLI; Octet HTX; 2 μg/mL MAb captured on protein G biosensor in 0.1% BSA-PBST; 3 μg/mL ZIKV E protein associated 600 s, dissociated 900 s; conditions: both partners purified
[6] = molecular target: T2, ZIKV virus-like particles (Suriname …); experiment: Luminex bead assay; VLP conjugated to MagPlex beads (EDC/NHS); 10,000 beads/mL with 10 μg/mL to 0.0002 ng/mL MAb, 90 min, room temperature, 1% BSA in D-PBS; detected with phycoerythrin-labeled anti-rabbit IgG; conditions: both partners purified
[7] = molecular target: ZIKV prM/E (ZIKV SPH2015), E G337A (Zika virus (ZIKV SPH2015)); experiment: flow cytometry on cells
[8] = molecular target: ZIKV prM/E (ZIKV SPH2015), E S368A (Zika virus (ZIKV SPH2015)); experiment: flow cytometry on cells
[9] = molecular target: ZIKV prM/E (ZIKV SPH2015), E G100A (Zika virus (ZIKV SPH2015)); experiment: flow cytometry on cells
[10] = molecular target: ZIKV prM/E (ZIKV SPH2015), E G182A (Zika virus (ZIKV SPH2015)); experiment: flow cytometry on cells
[11] = molecular target: ZIKV prM/E (ZIKV SPH2015), E L107A (Zika virus (ZIKV SPH2015)); experiment: flow cytometry on cells
[12] = molecular target: ZIKV prM/E (ZIKV SPH2015), prM V60A (Zika virus (ZIKV SPH2015)); experiment: flow cytometry on cells
[13] = molecular target: ZIKV prM/E (ZIKV SPH2015), prM D57A (Zika virus (ZIKV SPH2015)); experiment: flow cytometry on cells
[14] = molecular target: ZIKV prM/E (ZIKV SPH2015), prM E58A (Zika virus (ZIKV SPH2015)); experiment: flow cytometry on cells
[15] = molecular target: ZIKV prM/E (ZIKV SPH2015), E T335A (Zika virus (ZIKV SPH2015)); experiment: flow cytometry on cells
[16] = molecular target: ZIKV prM/E (ZIKV SPH2015), E T309A (Zika virus (ZIKV SPH2015)); experiment: flow cytometry on cells
[17] = molecular target: ZIKV prM/E (ZIKV SPH2015), E I317A (Zika virus (ZIKV SPH2015)); experiment: flow cytometry on cells
[18] = molecular target: ZIKV prM/E (ZIKV SPH2015), prM G59A (Zika virus (ZIKV SPH2015)); experiment: flow cytometry on cells
[19] = molecular target: ZIKV prM/E (ZIKV SPH2015), E H399A (Zika virus (ZIKV SPH2015)); experiment: flow cytometry on cells
[20] = molecular target: ZIKV prM/E (ZIKV SPH2015), E T369A (Zika virus (ZIKV SPH2015)); experiment: flow cytometry on cells
[21] = molecular target: ZIKV prM/E (ZIKV SPH2015), E E162A (Zika virus (ZIKV SPH2015)); experiment: flow cytometry on cells
[22] = molecular target: ZIKV prM/E (ZIKV SPH2015), E H398A (Zika virus (ZIKV SPH2015)); experiment: flow cytometry on cells
[23] = molecular target: ZIKV prM/E (ZIKV SPH2015), E T397A (Zika virus (ZIKV SPH2015)); experiment: flow cytometry on cells
[24] = molecular target: ZIKV prM/E (ZIKV SPH2015), E K301A (Zika virus (ZIKV SPH2015)); experiment: flow cytometry on cells
[25] = molecular target: ZIKV prM/E (ZIKV SPH2015), E G302A (Zika virus (ZIKV SPH2015)); experiment: flow cytometry on cells
[26] = molecular target: ZIKV prM/E (ZIKV SPH2015), E E370A (Zika virus (ZIKV SPH2015)); experiment: flow cytometry on cells

Binder	other [1] [ng/mL]	Kd [2] [nM]	koff [2] [s⁻¹]	kon [2] [M⁻¹ s⁻¹]	Kd [3] [nM]	koff [3] [s⁻¹]	kon [3] [M⁻¹ s⁻¹]	binding result [4]	also measured
B1	7.8	0.29	3.68e-05	129000	0.3	4.58e-05	155000	binds	–
B2	–	1.53	0.000137	89800	0.57	7.13e-05	125000	–	–
B3	10500	0.17	2.04e-05	117000	0.4	6.34e-05	160000	binds	–
B4	–	–	–	–	–	–	–	–	binding result [5]: binds; binding result [6]: binds
B5	–	–	–	–	–	–	–	–	binding result [5]: binds; binding result [6]: binds
B6	42.8	1.22	8.16e-05	67100	0.24	4.93e-05	202000	binds	antibody binding reactivity (% WT) [7]: 48.3 % WT; antibody binding reactivity (% WT) [8]: 89.1 % WT; antibody binding reactivity (% WT) [9]: 70.3 % WT; antibody binding reactivity (% WT) [10]: 85.6 % WT; antibody binding reactivity (% WT) [11]: 122 % WT; antibody binding reactivity (% WT) [12]: 97.2 % WT; antibody binding reactivity (% WT) [13]: 91.9 % WT; antibody binding reactivity (% WT) [14]: 96.8 % WT; antibody binding reactivity (% WT) [15]: 36.2 % WT; antibody binding reactivity (% WT) [16]: 104 % WT; antibody binding reactivity (% WT) [17]: 112 % WT; antibody binding reactivity (% WT) [18]: 94.9 % WT; antibody binding reactivity (% WT) [19]: 127 % WT; antibody binding reactivity (% WT) [20]: 34.5 % WT; antibody binding reactivity (% WT) [21]: 79.6 % WT; antibody binding reactivity (% WT) [22]: 77.2 % WT; antibody binding reactivity (% WT) [23]: 111 % WT; antibody binding reactivity (% WT) [24]: 78.7 % WT; antibody binding reactivity (% WT) [25]: 68.3 % WT
B7	–	1.04	9.8e-05	94500	0.31	4.27e-05	140000	binds	MNT titer, IC50 (microneutralization of ZIKV PRVABC59 on Vero cells) [1]: 0.0372 mg/L
B8	–	0.1	1.94e-05	192000	0.19	4.28e-05	221000	binds	antibody binding reactivity (% WT) [7]: 59.7 % WT; antibody binding reactivity (% WT) [8]: 87.5 % WT; antibody binding reactivity (% WT) [26]: 92.7 % WT; antibody binding reactivity (% WT) [10]: 110 % WT; antibody binding reactivity (% WT) [12]: 113 % WT; antibody binding reactivity (% WT) [13]: 123 % WT; antibody binding reactivity (% WT) [14]: 130 % WT; antibody binding reactivity (% WT) [15]: 71.6 % WT; antibody binding reactivity (% WT) [16]: 96.2 % WT; antibody binding reactivity (% WT) [17]: 61.2 % WT; antibody binding reactivity (% WT) [18]: 117 % WT; antibody binding reactivity (% WT) [19]: 97.2 % WT; antibody binding reactivity (% WT) [20]: 113 % WT; antibody binding reactivity (% WT) [21]: 101 % WT; antibody binding reactivity (% WT) [22]: 92.9 % WT; antibody binding reactivity (% WT) [23]: 147 % WT; antibody binding reactivity (% WT) [24]: 82.5 % WT; antibody binding reactivity (% WT) [25]: 69.2 % WT
